Reference: IntAct's records for PubMed 31515488

B1: Alpha-taxilin (Homo sapiens), P40222 (parent)
chain: MKNQDKKNGAAKQSNPKSSPGQPEAGPEGAQERPSQAAPAVEAEGPGSSQAPRKPEGAQARTAQSGALRDVSEELSRQLEDILSTYCVDNNQGGPGEDGAQGEPAEPEDAEKSRTYVARNGEPEPTPVVNGEKEPSKGDPNTEEIRQSDEVGDRDHRRPQEKKKAKGLGKEITLLMQTLNTLSTPEEKLAALCKKYAELLEEHRNSQKQMKLLQKKQSQLVQEKDHLRGEHSKAVLARSKLESLCRELQRHNRSLKEEGVQRAREEEEKRKEVTSHFQVTLNDIQLQMEQHNERNSKLRQENMELAERLKKLIEQYELREEHIDKVFKHKDLQQQLVDAKLQQAQEMLKEAEERHQREKDFLLKEAVESQRMCELMKQQETHLKQQLALYTEKFEEFQNTLSKSSEVFTTFKQEMEKMTKKIKKLEKETTMYRSRWESSNKALLEMAEEKTVRDKELEGLQVKIQRLEKLCRALQTERNDLNKRVQDLSAGGQGSLTDSGPERRPEGPGAQAPSSPRVTEAPCYPGAPSTEASGQTGPQEPTSARA
partner: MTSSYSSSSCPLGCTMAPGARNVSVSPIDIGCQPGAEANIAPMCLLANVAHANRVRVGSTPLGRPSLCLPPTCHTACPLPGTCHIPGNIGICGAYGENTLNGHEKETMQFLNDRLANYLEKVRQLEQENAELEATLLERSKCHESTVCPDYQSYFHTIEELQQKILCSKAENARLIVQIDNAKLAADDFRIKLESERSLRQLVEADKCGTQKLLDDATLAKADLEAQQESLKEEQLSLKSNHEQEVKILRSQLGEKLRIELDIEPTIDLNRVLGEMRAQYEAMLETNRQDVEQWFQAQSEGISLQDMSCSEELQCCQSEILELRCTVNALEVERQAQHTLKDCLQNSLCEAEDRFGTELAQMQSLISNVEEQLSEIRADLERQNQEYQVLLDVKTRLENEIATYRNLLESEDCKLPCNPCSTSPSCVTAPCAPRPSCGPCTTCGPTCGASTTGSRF
B2: Tetraspanin-5 (Homo sapiens), P62079 (parent)
chain: MSGKHYKGPEVSCCIKYFIFGFNVIFWFLGITFLGIGLWAWNEKGVLSNISSITDLGGFDPVWLFLVVGGVMFILGFAGCIGALRENTFLLKFFSVFLGIIFFLELTAGVLAFVFKDWIKDQLYFFINNNIRAYRDDIDLQNLIDFTQEYWQCCGAFGADDWNLNIYFNCTDSNASRERCGVPFSCCTKDPAEDVINTQCGYDARQKPEVDQQIVIYTKGCVPQFEKWLQDNLTIVAGIFIGIALLQIFGICLAQNLVSDIEAVRASW
partner: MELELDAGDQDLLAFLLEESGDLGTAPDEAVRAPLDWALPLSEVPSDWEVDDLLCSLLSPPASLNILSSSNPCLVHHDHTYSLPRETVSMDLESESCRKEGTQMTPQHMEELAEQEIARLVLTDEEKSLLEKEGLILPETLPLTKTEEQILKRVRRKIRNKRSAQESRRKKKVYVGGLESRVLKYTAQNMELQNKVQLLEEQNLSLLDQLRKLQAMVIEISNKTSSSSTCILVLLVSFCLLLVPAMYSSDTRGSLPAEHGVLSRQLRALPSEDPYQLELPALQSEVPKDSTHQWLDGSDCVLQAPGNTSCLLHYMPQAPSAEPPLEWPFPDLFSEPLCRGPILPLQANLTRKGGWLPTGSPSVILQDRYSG
B3: Zinc finger protein Aiolos (Homo sapiens), Q9UKT9 (parent)
chain: MEDIQTNAELKSTQEQSVPAESAAVLNDYSLTKSHEMENVDSGEGPANEDEDIGDDSMKVKDEYSERDENVLKSEPMGNAEEPEIPYSYSREYNEYENIKLERHVVSFDSSRPTSGKMNCDVCGLSCISFNVLMVHKRSHTGERPFQCNQCGASFTQKGNLLRHIKLHTGEKPFKCHLCNYACQRRDALTGHLRTHSVEKPYKCEFCGRSYKQRSSLEEHKERCRTFLQSTDPGDTASAEARHIKAEMGSERALVLDRLASNVAKRKSSMPQKFIGEKRHCFDVNYNSSYMYEKESELIQTRMMDQAINNAISYLGAEALRPLVQTPPAPTSEMVPVISSMYPIALTRAEMSNGAPQELEKKSIHLPEKSVPSERGLSPNNSGHDSTDTDSNHEERQNHIYQQNHMVLSRARNGMPLLKEVPRSYELLKPPPICPRDSVKVINKEGEVMDVYRCDHCRVLFLDYVMFTIHMGCHGFRDPFECNMCGYRSHDRYEFSSHIARGEHRALLK
partner: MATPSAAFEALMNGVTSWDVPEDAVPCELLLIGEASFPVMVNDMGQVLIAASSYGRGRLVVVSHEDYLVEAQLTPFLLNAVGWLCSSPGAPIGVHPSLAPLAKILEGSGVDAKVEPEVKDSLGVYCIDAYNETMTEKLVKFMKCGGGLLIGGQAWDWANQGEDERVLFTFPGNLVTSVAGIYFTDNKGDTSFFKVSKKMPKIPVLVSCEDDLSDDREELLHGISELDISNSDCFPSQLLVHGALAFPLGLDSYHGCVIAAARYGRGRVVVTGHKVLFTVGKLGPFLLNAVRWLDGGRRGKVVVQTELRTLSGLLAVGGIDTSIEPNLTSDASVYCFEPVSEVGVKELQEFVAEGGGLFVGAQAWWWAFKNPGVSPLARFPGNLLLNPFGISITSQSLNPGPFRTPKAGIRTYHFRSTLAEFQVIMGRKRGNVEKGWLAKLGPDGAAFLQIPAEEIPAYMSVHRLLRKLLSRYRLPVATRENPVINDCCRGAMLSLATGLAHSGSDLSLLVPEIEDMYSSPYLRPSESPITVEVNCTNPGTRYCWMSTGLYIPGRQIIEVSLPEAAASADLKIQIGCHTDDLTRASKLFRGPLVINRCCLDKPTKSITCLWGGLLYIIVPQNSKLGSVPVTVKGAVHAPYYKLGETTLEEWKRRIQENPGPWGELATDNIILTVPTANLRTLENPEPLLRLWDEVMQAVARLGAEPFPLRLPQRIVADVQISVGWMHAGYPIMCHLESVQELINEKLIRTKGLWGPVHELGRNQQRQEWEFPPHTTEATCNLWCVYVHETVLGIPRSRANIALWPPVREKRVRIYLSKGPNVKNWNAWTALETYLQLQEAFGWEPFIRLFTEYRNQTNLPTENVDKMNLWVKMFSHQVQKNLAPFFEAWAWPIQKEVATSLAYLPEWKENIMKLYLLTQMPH
B4: Calcium-binding and coiled-coil domain-containing protein 2 (Homo sapiens), Q13137 (parent)
chain: MEETIKDPPTSAVLLDHCHFSQVIFNSVEKFYIPGGDVTCHYTFTQHFIPRRKDWIGIFRVGWKTTREYYTFMWVTLPIDLNNKSAKQQEVQFKAYYLPKDDEYYQFCYVDEDGVVRGASIPFQFRPENEEDILVVTTQGEVEEIEQHNKELCKENQELKDSCISLQKQNSDMQAELQKKQEELETLQSINKKLELKVKEQKDYWETELLQLKEQNQKMSSENEKMGIRVDQLQAQLSTQEKEMEKLVQGDQDKTEQLEQLKKENDHLFLSLTEQRKDQKKLEQTVEQMKQNETTAMKKQQELMDENFDLSKRLSENEIICNALQRQKERLEGENDLLKRENSRLLSYMGLDFNSLPYQVPTSDEGGARQNPGLAYGNPYSGIQESSSPSPLSIKKCPICKADDICDHTLEQQQMQPLCFNCPICDKIFPATEKQIFEDHVFCHSL
partner: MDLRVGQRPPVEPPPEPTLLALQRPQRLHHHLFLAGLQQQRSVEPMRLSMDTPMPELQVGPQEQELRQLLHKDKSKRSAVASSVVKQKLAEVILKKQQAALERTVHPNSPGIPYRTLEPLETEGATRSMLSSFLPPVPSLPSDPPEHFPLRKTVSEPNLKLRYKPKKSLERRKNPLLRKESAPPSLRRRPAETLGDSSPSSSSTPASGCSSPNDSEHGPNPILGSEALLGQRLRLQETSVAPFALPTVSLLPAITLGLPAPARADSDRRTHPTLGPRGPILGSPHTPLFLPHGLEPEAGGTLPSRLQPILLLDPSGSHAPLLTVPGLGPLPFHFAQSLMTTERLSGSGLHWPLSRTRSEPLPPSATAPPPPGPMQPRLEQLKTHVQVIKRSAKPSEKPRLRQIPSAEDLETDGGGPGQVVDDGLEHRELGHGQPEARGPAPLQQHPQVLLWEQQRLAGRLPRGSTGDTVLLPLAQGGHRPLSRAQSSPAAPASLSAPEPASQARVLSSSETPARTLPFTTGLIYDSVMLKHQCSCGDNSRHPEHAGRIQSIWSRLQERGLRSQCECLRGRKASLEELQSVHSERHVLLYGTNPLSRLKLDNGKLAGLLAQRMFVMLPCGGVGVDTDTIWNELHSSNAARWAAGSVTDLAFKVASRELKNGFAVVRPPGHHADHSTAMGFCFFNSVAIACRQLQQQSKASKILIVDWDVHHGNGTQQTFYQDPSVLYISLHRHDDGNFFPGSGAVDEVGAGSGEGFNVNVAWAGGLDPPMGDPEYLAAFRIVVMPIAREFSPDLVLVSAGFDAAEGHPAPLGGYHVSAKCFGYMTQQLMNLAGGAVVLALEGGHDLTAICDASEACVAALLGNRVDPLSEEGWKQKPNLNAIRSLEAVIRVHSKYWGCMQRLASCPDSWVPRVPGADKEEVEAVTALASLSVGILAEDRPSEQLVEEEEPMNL
B5: Syntenin-2 (Homo sapiens), Q9H190 (parent)
chain: MSSLYPSLEDLKVDQAIQAQVRASPKMPALPVQATAISPPPVLYPNLAELENYMGLSLSSQEVQESLLQIPEGDSTAVSGPGPGQMVAPVTGYSLGVRRAEIKPGVREIHLCKDERGKTGLRLRKVDQGLFVQLVQANTPASLVGLRFGDQLLQIDGRDCAGWSSHKAHQVVKKASGDKIVVVVRDRPFQRTVTMHKDSMGHVGFVIKKGKIVSLVKGSSAARNGLLTNHYVCEVDGQNVIGLKDKKIMEILATAGNVVTLTIIPSVIYEHMVKKLPPVLLHHTMDHSIPDA
partner: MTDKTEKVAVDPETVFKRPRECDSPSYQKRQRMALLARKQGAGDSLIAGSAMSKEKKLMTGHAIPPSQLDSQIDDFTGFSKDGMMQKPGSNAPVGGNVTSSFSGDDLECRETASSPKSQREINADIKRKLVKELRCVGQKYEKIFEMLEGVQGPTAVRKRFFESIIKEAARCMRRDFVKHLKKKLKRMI
B6: "Peptide-N(4)-(N-acetyl-beta-glucosaminyl)asparagine amidase" (Homo sapiens), Q96IV0 (parent)
chain: MAAAALGSSSGSASPAVAELCQNTPETFLEASKLLLTYADNILRNPNDEKYRSIRIGNTAFSTRLLPVRGAVECLFEMGFEEGETHLIFPKKASVEQLQKIRDLIAIERSSRLDGSNKSHKVKSSQQPAASTQLPTTPSSNPSGLNQHTRNRQGQSSDPPSASTVAADSAILEVLQSNIQHVLVYENPALQEKALACIPVQELKRKSQEKLSRARKLDKGINISDEDFLLLELLHWFKEEFFHWVNNVLCSKCGGQTRSRDRSLLPSDDELKWGAKEVEDHYCDACQFSNRFPRYNNPEKLLETRCGRCGEWANCFTLCCRAVGFEARYVWDYTDHVWTEVYSPSQQRWLHCDACEDVCDKPLLYEIGWGKKLSYVIAFSKDEVVDVTWRYSCKHEEVIARRTKVKEALLRDTINGLNKQRQLFLSENRRKELLQRIIVELVEFISPKTPKPGELGGRISGSVAWRVARGEMGLQRKETLFIPCENEKISKQLHLCYNIVKDRYVRVSNNNQTISGWENGVWKMESIFRKVETDWHMVYLARKEGSSFAYISWKFECGSVGLKVDSISIRTSSQTFQTGTVEWKLRSDTAQVELTGDNSLHSYADFSGATEVILEAELSRGDGDVAWQHTQLFRQSLNDHEENCLEIIIKFSDL
partner: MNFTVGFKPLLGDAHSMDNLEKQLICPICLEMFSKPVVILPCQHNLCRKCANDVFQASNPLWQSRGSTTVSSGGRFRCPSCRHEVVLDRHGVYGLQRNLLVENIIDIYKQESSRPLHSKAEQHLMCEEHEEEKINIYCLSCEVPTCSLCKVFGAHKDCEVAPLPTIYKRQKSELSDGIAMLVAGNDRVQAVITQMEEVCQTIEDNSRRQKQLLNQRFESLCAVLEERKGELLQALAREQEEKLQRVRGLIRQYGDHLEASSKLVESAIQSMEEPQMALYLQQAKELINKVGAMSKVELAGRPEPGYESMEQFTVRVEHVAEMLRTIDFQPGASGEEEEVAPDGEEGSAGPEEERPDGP

Variants of: B1
Details: with krt38_human KRT38, O76015

effect of a mutation on the interaction	Variant
with no effect	P541S

Variants of: B2
Details: with creb3_human CREB3, O43889

effect of a mutation on the interaction	Variant
with no effect	T218M

Variants of: B3
Details: with tcaf1_human TCAF1, Q9Y4C2

effect of a mutation on the interaction	Variant
with no effect	A24V
with no effect	N119D

Variants of: B4
Details: with hdac7_human HDAC7, Q8WUI4

effect of a mutation on the interaction	Variant
with no effect	P389A
with no effect	T273A

Variants of: B5
Details: with ct457_human CT45A7, P0DMV0

effect of a mutation on the interaction	Variant
disrupting interaction strength	G242R
disrupting interaction strength	V182M
disrupting interaction strength	G225R

Variants of: B6
Details: with tri54_human TRIM54, Q9BYV2

effect of a mutation on the interaction	Variant
with no effect	F292L
with no effect	V184F
